The star is where a group is joined. Biotin = O=C1N[C@H]2[C@H](CS[C@H]2CCCCC(=O)*)N1; Ahx = NCCCCCC(=O)O
T1: biotin-hPP (human, N-terminal Biotin-Ahx-; C-terminal amide (-NH2))
T1 peptide: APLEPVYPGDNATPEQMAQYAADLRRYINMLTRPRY

T2: biotin-NPY20-36 (SMILES …)
T2 construct: Captured on neutravidin or streptavidin plates
T2 peptide: {Biotin-Ahx}-YYSALRHYINLITRQRY-NH2


Key:
biotin-hPP = target: T1, biotin-hPP; assay: BLI (ForteBio Blitz), biotinylated peptide on streptavidin sensor, scFv in solution
Experimental: (§1) Affinity of the purified scFv for biotin-NPY, biotin-hPYY and biotin-hPP was determined using a Blitz system (ForteBio). Streptavidin Biosensors were blocked for 1 hr with 1% BSA in PBS. Biosensors were then coupled for 120 seconds with 1 μM solutions of biotinylated peptide followed by a 30 second baseline measurement. The sensors were then transferred to varying dilutions of purified scFv and association was measured for 300 seconds. The sensors were then transferred to PBS and dissociation was measured for 900 seconds. Global fits were determined for association and dissociation curves at two concentrations of each scFv against each of the peptides. All curves were referenced with peptide-only and scFv-only runs.

biotin-NPY = biotin-NPY (N-terminal Biotin-Ahx-; C-terminal amide (-NH2)); assay: as above
Experimental: as §1

biotin-NPY20-36 [1] = target: T2, biotin-NPY20-36; assay: soluble scFv ELISA, biotin-NPY20-36 on streptavidin
Experimental: (§2) In order to analyze antigen binding, ELISA plates were coated with 1 ug/mL biotin-NPY₂₀₋₃₆ on 10 ug/mL streptavidin […] streptavidin only.
(§3) Plates were then blocked with 5% skim milk/PB ST and incubated with supernatant from the IPTG-induced cultures. Binding of soluble scFv to wells was detected with peroxidase conjugated anti-cMyc.

biotin-hPYY = biotin-hPYY (human, N-terminal Biotin-Ahx-; C-terminal amide (-NH2)); assay: BLI (ForteBio Blitz), biotinylated peptide on streptavidin sensor, scFv in solution
Experimental: as §1

biotin-NPY20-36 [2] = target: T2, biotin-NPY20-36; assay: soluble scFv ELISA, biotin-NPY20-36 on streptavidin, anti-cMyc detection
Experimental: as §2, §3

biotin-NPY20-36 [3] = target: T2, biotin-NPY20-36; assay: phage ELISA, scFv on phage, anti-M13 detection
Experimental: Overnight cultures were grown from clones transformed with the humanized 5E12-B7 scFv genes pHEN1 vector. Phages were then produced through overnight incubation after rescue with KM13 helper phage. In order to analyze antigen binding, ELISA plates were coated with 500 ng/mL biotin-NPY₂₀₋₃₆ on 10 ug/mL neutravidin; 10 ug/mL neutravidin only; 10 ug/mL Protein A or 10 ug/mL Protein L
ELISA plates were blocked with 5% skim milk/PB ST then incubated with phage culture supernatant which had also been blocked with 5% skim milk/1% Tween (final concentration). Binding of scFv-phage to wells was detected with Peroxidase conjugated anti-M13 secondary antibody.

Chain of biotin-hPYY (human, N-terminal Biotin-Ahx-; C-terminal amide (-NH2)) (peptide, as listed by the source): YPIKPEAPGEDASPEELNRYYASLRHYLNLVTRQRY

Binder | max signal (nm) (biotin-hPP) | Kd (biotin-NPY) | binding result (biotin-NPY20-36 [1]) | Kd (biotin-hPYY) | binding result (biotin-NPY20-36 [2]) | binding result (biotin-NPY20-36 [3])
scFv-7 (human) (scFv, Human scFv from the Garvan-2 phage library; Whole entry used as named) scFv: EVQLLESGGGLVQPGGSLRLSCAASGFRFDYEDMGWVRQAPGKGLEWVSAIASDGDSTYYADSVKGRFTISRDNSKNTLYLQMNSLRAEDTAVYYCAKIYYDGAYRVFDYWGQGTLVTVSSGGGGSGGGGSGGGGSTDIQMTQSPSSLSASVGDRVTITCRASQSISSYLNWYQQKPGKAPKLLIYSASYLQSGVPSRFSGSGSGTDFTLTISSLQPEDFATYYCQQYSMLPTTFGQGTKVEIKR | < 0.2 nm | 9250 nM | binds |  |  | 
scFv-3 (human) (scFv, Human scFv from the Garvan-2 phage library; Whole entry used as named) scFv: EVQLLESGGGLVQPGGSLRLSCAASGFRFSDEDMGWVRQAPGKGLEWVSSIYGPSGSTYYADSVKGRFTISRDNSKNTLYLQMNSLRAEDTAVYYCAKDDVGTGTFDYWGQGTLVTVSSGGGGSGGGGSGGGGSTDIQMTQSPSSLSASVGDRVTITCRASQYIYYALNWYQQKPGKAPKLLIYDYSALQSGVPSRFSGSGSGTDFTLTISSLQPEDFATYYCQQSYYHPATFGQGTKVEIKR | < 0.2 nm |  | binds | 1910 nM |  | 
scFv-6 (human) (scFv, Human scFv from the Garvan-2 phage library; Whole entry used as named) scFv: EVQLLESGGGLVQPGGSLRLSCAASGFRFSAEDMGWVRQAPGKGLEWVSSIASAGASTYYADSVKGRFTISRDNSKNTLYLQMNSLRAEDTAVYYCAKHMYSYAIFDYWGQGTLVTVSSGGGGSGGGGSGGGGSTDIQMTQSPSSLSASVGDRVTITCRASQDIADALNWYQQKPGKAPKLLIYAASSLQSGVPSKFSGSGSGTDFTLTISSLQPEDFATYYCQQGYVHPPTFGQGTKVEIKR | < 0.2 nm | 177 nM | binds | 3240 nM |  | 
mouse 5E12-B7 scFv PSE2 (scFv, V domains shown, not shown: small tags and cut ends, also called 5E12 (mouse); mouse 5E12 PSE2) VH: QVQLQHPGTEVVKPGASVKLSCKASGYTFTNYWMHWVKQRPGQGLEWIGNIDPSNGGTNYNEKFKSKATLTVDKSSSTAYMQLSSLTSEDSAVYYCASFAYWGQGTLVTVSS VL: DIQMTQSPASLSASVGETVTITCRASGNIHNYLAWYQQKQGKSPQLLVYNAKTLADGVPSRFSGSGSGTQYSLKISSLRPEDFGSYYCQHFWSPPFTFGSGTKLEIK |  | 22.1 nM |  | 32.9 nM | binds | 
h5E12 IGHV1-46/DPK9 scFv (humanized) (scFv, Humanized 5E12 scFv) scFv: QVQLVQSGAEVKKPGASVKVSCKASGYTFTNYWMHWVRQAPGQGLEWMGNIDPSNGGTNYNEKFKSRVTMTRDTSTSTVYMELSSLRSEDTAVYYCASFAYWGQGTLVTVSSGGGGSGGGGSGGGGSTDIQMTQSPSSLSASVGDRVTITCRASGNIHNYLAWYQQKPGKAPKLLIYNAKTLADGVPSRFSGSGSGTDFTLTISSLQPEDFATYYCQHFWSPPFTFGQGTKVEIKR | < 0.2 nm | 905 nM |  | 1040 nM |  | binds
h5E12 IGHV1-69/DPK9 scFv (humanized) (scFv, Humanized 5E12 scFv) scFv: QVQLVQSGAEVKKPGSSVKVSCKASGYTFTNYWMHWVRQAPGQGLEWMGNIDPSNGGTNYNEKFKSRVTITADESTSTAYMELSSLRSEDTAVYYCASFAYWGQGTLVTVSSGGGGSGGGGSGGGGSTDIQMTQSPSSLSASVGDRVTITCRASGNIHNYLAWYQQKPGKAPKLLIYNAKTLADGVPSRFSGSGSGTDFTLTISSLQPEDFATYYCQHFWSPPFTFGQGTKVEIKR | < 0.2 nm | 142 nM |  | 140 nM |  | binds

Source: US20150307599A1 (GARVAN INSTITUTE OF MEDICAL RESEARCH, published 2015)
